Laboratory results from patent US20070160601A1 (published 2007).
Square brackets hold non-standard residues; d marks the D form. cellulose membrane = cellulose membrane solid support, attached through a beta-alanine spacer; sY = N[C@@H](Cc1ccc(OS(=O)(=O)O)cc1)C(=O)O; βAla = NCCC(=O)O

T1: human PSGL-1 on cells (human, UniProt Q14242 42-412)
T1 construct: whole, on cells; One molecule is used for HL-60 cells, recombinant CHO cells and blood cells; The cell type is named in each entry; also called native PSGL-1 expressed on HL-60 cells; recombinant CHO cells expressing human PSGL-1
T1 sequence (looked up): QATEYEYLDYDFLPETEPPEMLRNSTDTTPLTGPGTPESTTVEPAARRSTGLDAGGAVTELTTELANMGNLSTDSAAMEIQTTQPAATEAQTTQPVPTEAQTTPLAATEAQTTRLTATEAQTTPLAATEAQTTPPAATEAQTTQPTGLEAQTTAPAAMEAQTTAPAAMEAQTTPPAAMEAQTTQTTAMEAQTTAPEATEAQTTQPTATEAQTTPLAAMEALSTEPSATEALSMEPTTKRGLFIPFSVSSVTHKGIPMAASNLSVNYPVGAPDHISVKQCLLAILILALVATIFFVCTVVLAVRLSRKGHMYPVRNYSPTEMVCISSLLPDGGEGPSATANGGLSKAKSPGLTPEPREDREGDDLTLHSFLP

T2: fully sulfated and glycosylated human PSGL-1 19.ek.Fc fusion protein (human, not fully specified; sulfated tyrosines (y in QATEyEyLDyDFLPETEPPRPMMDDDDK, corresponding to Tyr46, Tyr48 and Tyr51); SLe^x-capped O-glycan; biotinylated in the assays)
T2 construct: also called PSGL-19.ek.Fc; biotinylated PSGL-1 19.ek.Fc
T2 chain: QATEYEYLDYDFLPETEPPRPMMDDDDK

T3: peptide EYEYLDyDF (SEQ ID NO:45) (human)
T3 construct: Spot 55 of the peptide array; also called peptide 55
T3 peptide: Ac-EYEYLD[sY]DF-{βAla-cellulose membrane}


Key:
human PSGL-1 on cells [1] = target: T1, human PSGL-1 on cells; test: FACS on HL-60 cells, scFv complexed with mouse anti-Myc, FITC secondary
Protocol: Characterization of the antibodies using FACS analysis. The binding specificity of the neutralizing antibodies was assessed by FACS analysis of HL-60 cells as well as in parent and recombinant CHO cells expressing human or rat PSGL-1 (data not shown). For FACS analysis, 0.5×10⁶ cells were incubated in 100 μL HBSS 2 mM CaCl₂, 1% fetal calf serum, NaN₃, containing 15 or 50 μg of the indicated scFvs complexed with 50 μg/ml mouse-anti-Myc-HRP (Roche Applied Sciences, Indianapolis, Ind.). The cells were washed and incubated with 1:100 anti-mouse FITC-conjugated secondary antibody (Roche Applied Sciences, Indianapolis, Ind.). Analysis was performed on viable cells of the mononuclear population with low forward and side scatter properties. As shown in FIG. 7(A) and FIG. 7(B), PSG3, PSG5, and PSG6 scFvs bind to native PSGL-1 expressed on HL-60 cells.

human PSGL-1 on cells [2] = target: T1, human PSGL-1 on cells; test: FACS on recombinant CHO cells expressing human PSGL-1 (data not shown)
[3] = target: T2, fully sulfated and glycosylated human …; test: BIAcore 2000, biotinylated PSGL-1 19.ek.Fc on streptavidin chip, antibody injected at 0-100 nM
Protocol: Surface plasmon resonance binding analysis. A BIAcore 2000 instrument (BIAcore AB, Uppsala, Sweden) was used to analyze the interactions between the identified antibodies and biotinylated PSGL-1 19.ek.Fc or derived peptides. Binding experiments were performed at 25° C. using streptavidin-coated sensor chips (BIAcore) and HBS-P buffer (20 mM HEPES [pH 7.4], 150 mM NaCl and 0.005% polysorbate 20 v/v) adjusted to 1 mM for both CaCl₂ and MgCl₂. The streptavidin on the sensor surfaces were condition with three one-minute injections of a solution containing 1 M NaCl and 25 mM NaOH. The chips were regenerated with 5 μL of 0.1% TFA and equilibrated with running buffer. […] Binding kinetics were analyzed using BIAevaluation software (V2.1; Pharmacia Biosensor, Uppsala, Sweden). The response representing the mass of bound monoclonal antibodies was measured in resonance units (RU). […] Binding kinetics of human anti-PSGL-1 monoclonal antibodies to the immobilized PSGL-1 19.ek.Fc was determined under partial mass transport limitations by triplicate injections at a concentration range (0-100 nM) onto the immobilized biotinlylated PSGL-1 19.ek peptide at a flow rate of 30 μL/min, following injection for two minutes. Dissociation was monitored for ten minutes at the same flow rate.

[4] = target: T3, peptide EYEYLDyDF (SEQ ID NO:45); test: peptide spot array on cellulose membrane, HRP anti-Fc detection
Text: Epitope mapping of PSG3. Fmoc-protected amino acids and cellulose membranes modified with polyethylene glycol were purchased from Intavis. Fmoc-protected β-alanine was purchased from Chem-Impex (Wood Dale, Ill.). The arrays were defined on the membranes by coupling a β-alanine spacer, followed by elongation of the peptide chain. Peptides were synthesized using standard DIC/HOBt coupling chemistry as described previously. (See, e.g., Molina et al., Pept. Res. 9:151-155 (1996) and Frank et al., Tetrahedron 48:9217-9232 (1992)). Activated amino acids were spotted using an Abimed ASP 222 robot. Washing and deprotection steps were done manually and the peptides were N-terminally acetylated after the final synthesis cycle.
Following peptide synthesis and side chain deprotection, the membranes were washed in methanol for 10 minutes and in blocker (1% casein in TBS) for 10 minutes. The membranes were then incubated with 1 μg/mL of […] in TBS for 1 hour with gentle shaking. The membranes were washed 4 times for 2 minutes in TBS and then probed with an HRP-conjugated anti-Fc antibody in blocker. After washing with TBS, bound protein was visualized using SuperSignal West reagent (Pierce) and a digital camera (AlphaInnotech FluorImager). Signal intensity reflects the amount of protein bound at each spot.

| Binder | binding result (human PSGL-1 on cells [1]) | binding result (human PSGL-1 on cells [2]) | Ka [3] | binding result [4] |
| --- | --- | --- | --- | --- |
| PSG6 scFv (scFv, Human scFv from a phage display library, purified on NiNTA and detected with anti-Myc; also called scFv PSG6) scFv: EVQLLESGGGLVRPGGSLRLSCAASGFTFSSYAMSWVRQAPGKGLEWVSAISGSGGSTYYADSVKGRFTISRDNSKNTLYLQMNSLRAEDTAVYYCARDKRLTYWGQGTMVTVSSGGGGSGGGGSGGGGSAQSVVTQPPSVSAAPGQKVTISCSGSSSNIGNNYVSWYQQLPGTAPKLLIYDNNKRPSGIPDRFSGSKSGTSATLGITGLQTGDEADYYCGTWDSSLSARVFGGGTKVTVLGAAAHHHHHH | binds |  |  |  |
| PSG6 full-length bivalent antibody (human IgG4, lambda) (antibody, V domains shown, also called human monoclonal antibody PSG6) VH: EVQLLESGGGLVRPGGSLRLSCAASGFTFSSYAMSWVRQAPGKGLEWVSAISGSGGSTYYADSVKGRFTISRDNSKNTLYLQMNSLRAEDTAVYYCARDKRLTYWGQGTMVTVSS VL: QSVVTQPPSVSAAPGQKVTISCSGSSSNIGNNYVSWYQQLPGTAPKLLIYDNNKRPSGIPDRFSGSKSGTSATLGITGLQTGDEADYYCGTWDSSLSARVFGGGTKVTVLG |  | binds | ~6e+08 M⁻¹ |  |
| PSG3 scFv (scFv, Human scFv from a phage display library, purified from E. coli periplasm on NiNTA and detected with anti-Myc; also called scFv PSG3) scFv: QVQLVQSGAEVKKPGSSVRVSCKASGGSFSSYGIHWVQQAPGQGLEWMGRIIPVLRIRNYAQKFHDRVTIDADTSTGTAYMELSSLTSDDTAVYYCAGSRQGVAPTGYWGQGTMVTVSSGGGGSGGGGSGGGGSAQAVLTQPSSLSASPGASASLTCNLRSGIDVGTYRIYWYQQKPGSPPQYLLRYKSDSDKQQGSGVPSRFSGTKDASANAGILLISGLQSEDEADYYCMIWHSNGWVFGGGTKLTVLGAAAHHHHHH | binds |  |  |  |
| PSG3 full-length bivalent antibody (human IgG4, lambda) (antibody, V domains shown, also called full length PSG3; human monoclonal antibody PSG3) VH: QVQLVQSGAEVKKPGSSVRVSCKASGGSFSSYGIHWVQQAPGQGLEWMGRIIPVLRIRNYAQKFHDRVTIDADTSTGTAYMELSSLTSDDTAVYYCAGSRQGVAPTGYWGQGTMVTVSS VL: QAVLTQPSSLSASPGASASLTCNLRSGIDVGTYRIYWYQQKPGSPPQYLLRYKSDSDKQQGSGVPSRFSGTKDASANAGILLISGLQSEDEADYYCMIWHSNGWVFGGGTKLTVLG |  | binds | ~1.4e+09 M⁻¹ | binds |
